In the data set the target is T1, RsCDF3 (Raphanus sativus, UniProt A0A6J0K2F2 1-435).
T1 sequence: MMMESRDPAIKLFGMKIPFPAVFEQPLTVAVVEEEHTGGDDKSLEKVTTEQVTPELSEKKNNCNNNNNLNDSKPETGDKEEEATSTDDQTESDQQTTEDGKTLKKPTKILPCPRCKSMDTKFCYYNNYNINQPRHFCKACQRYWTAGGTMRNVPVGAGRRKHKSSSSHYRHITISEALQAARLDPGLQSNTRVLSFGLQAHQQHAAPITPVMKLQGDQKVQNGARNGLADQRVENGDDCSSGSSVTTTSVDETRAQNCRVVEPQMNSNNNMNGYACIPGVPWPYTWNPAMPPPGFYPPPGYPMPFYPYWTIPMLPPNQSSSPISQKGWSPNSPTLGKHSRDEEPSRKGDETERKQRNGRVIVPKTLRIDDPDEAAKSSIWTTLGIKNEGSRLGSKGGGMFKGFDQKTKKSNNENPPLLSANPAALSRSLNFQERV
The experiment in a line: competition.

B1: mP1 mutated probe (dsDNA)
DNA 1: AATACACATTTATAATGTCTAGTTAAACTTAC
DNA 2: GTAAGTTTAACTAGACATTATAAATGTGTATT
Turning to B1, the binding result is “no binding”.

For the origin of these results see article PMC10106849.
